US7015023

Tests used:
[1] = molecular target: GUS-YVAA-HBD fusion protein (beta-glucuronidase, Tyr-Val-Ala-Ala-Gly linker, hormone binding domain of rat glucocorticoid receptor) (UniProt P05804)
[2] = molecular target: GUS alone (beta-glucuronidase) (UniProt P05804)
GUS alone (beta-glucuronidase), sequence (P05804 whole entry, looked up): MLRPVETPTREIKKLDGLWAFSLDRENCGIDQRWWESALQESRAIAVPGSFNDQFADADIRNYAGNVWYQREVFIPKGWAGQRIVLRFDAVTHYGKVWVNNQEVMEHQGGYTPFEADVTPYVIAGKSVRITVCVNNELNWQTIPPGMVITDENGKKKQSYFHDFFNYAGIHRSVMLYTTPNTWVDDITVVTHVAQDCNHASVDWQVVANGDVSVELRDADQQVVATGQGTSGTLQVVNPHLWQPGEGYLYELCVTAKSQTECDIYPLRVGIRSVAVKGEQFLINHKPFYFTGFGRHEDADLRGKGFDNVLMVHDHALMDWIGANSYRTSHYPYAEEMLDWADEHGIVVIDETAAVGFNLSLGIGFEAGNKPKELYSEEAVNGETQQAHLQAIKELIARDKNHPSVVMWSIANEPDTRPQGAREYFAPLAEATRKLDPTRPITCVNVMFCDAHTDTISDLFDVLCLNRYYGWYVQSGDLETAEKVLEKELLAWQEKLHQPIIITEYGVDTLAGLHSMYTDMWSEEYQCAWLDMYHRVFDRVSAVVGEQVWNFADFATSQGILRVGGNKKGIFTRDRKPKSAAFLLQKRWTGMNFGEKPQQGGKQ

GUS-YVAA-HBD fusion protein (beta-glucuronidase, Tyr-Val-Ala-Ala-Gly linker, hormone binding domain of rat glucocorticoid receptor), sequence (P05804 other isoform, or with tags, fused parts or gaps): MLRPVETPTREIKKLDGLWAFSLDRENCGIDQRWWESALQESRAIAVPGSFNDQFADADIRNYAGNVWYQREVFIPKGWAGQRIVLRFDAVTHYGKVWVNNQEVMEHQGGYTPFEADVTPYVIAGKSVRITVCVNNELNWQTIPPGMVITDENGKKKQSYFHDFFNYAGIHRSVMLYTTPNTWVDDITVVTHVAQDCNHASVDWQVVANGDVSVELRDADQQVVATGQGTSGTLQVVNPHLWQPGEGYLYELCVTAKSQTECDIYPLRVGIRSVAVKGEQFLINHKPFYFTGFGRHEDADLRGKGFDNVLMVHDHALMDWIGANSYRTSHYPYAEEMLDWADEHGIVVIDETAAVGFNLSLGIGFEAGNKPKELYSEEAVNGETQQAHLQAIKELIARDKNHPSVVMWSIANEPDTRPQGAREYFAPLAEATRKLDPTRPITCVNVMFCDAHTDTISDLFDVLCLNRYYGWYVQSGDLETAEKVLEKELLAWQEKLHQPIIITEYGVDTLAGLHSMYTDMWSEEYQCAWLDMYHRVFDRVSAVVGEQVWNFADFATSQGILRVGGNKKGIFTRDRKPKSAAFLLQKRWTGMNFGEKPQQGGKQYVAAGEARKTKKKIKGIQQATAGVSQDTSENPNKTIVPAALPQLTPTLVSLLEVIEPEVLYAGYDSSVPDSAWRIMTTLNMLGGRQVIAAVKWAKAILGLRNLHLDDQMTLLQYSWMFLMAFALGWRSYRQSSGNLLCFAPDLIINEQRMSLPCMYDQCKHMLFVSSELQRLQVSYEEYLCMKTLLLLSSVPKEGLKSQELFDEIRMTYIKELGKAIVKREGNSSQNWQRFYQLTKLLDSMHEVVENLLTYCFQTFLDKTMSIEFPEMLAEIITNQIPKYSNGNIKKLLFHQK

Question: Which results are given for purified caspase-1?
Answer: GUS activity of in vitro translated fusion after addition of caspase-1 [1]: no detectable increase in GUS activity is observed; proteolytic cleavage, SDS-PAGE autoradiogram of 35S-labelled protein [1]: no obvious proteolysis was detected by caspase-1 was observed with either the P1 linker mutant fusion or the GUS alone control; proteolytic cleavage, SDS-PAGE autoradiogram of 35S-labelled protein [2]: no obvious proteolysis was detected by caspase-1 was observed with either the P1 linker mutant fusion or the GUS alone control
